The nature of the data set: protein stability index of a GFP-peptide fusion (GPS, HEK-293T) (PSI 1-6); higher = more stable.
[1] abbreviates: treatment: DMSO, c terminus: a fixed tail appended.
Where [2] appears, read: treatment: MLN4924 1 uM, 8 h, c terminus: a fixed tail appended.
Where [3] appears, read: treatment: DMSO, c terminus: native.
Where [4] appears, read: treatment: MLN4924 1 uM, 8 h, c terminus: native.

± gives the standard deviation.
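Further: 24-mer peptide tiles fused after GFP, lentivirally expressed, FACS-sorted into six equal bins by GFP/DsRed ratio, decoded by Illumina sequencing, PSI is the read-weighted mean bin number.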

For STCFTELQRDFLKQRPTKLKSLIR [OAS1], the protein stability index was found to be 2.6 ± 0.17 under setting [1] and 2.66 ± 0.14 under setting [2].
As to TEGPSLLNQKGTAVETEGSGSRHP [SLC2A12], the protein stability index is, setting by setting: under setting [1], 5.43 ± 0.21; under setting [2], 5.36 ± 0.43.
The sequence NQRAMDLYKALGAQDLTEAEGWHF [SAT2] returned a protein stability index under setting [1] of 3.28 ± 0.25 and a protein stability index under setting [2] of 3.14 ± 0.28.
With LDTVEEVLSVSKILHIPQVTKLCV [KLHL14], the protein stability index by setting is: under setting [1], 2.35 ± 0.48; under setting [2], 2.79 ± 0.43.
The sequence QHHEALSLFCYEDQEAVCLICAIS [TRIM39] had a protein stability index under setting [1] of 2.26 ± 0.23 and a protein stability index under setting [2] of 2.35 ± 0.18.
RNLLVENIIDIYKQESTRPEKKSD [TRIM55]: the protein stability index under setting [1] was 4.42 ± 0.51 and the protein stability index under setting [2] was 4.73 ± 0.11.
The like results for EPVTLETPAFMFRLDASTSHQNLR [FSD1] were, in that order, 3.6 ± 0.35 and 3.83 ± 0.2.
For the sequence NALTLTFQRAMHDYNQAEMKQRDN [STX11], the protein stability index by setting is: under setting [1], 3.54 ± 0.15; under setting [2], 3.68 ± 0.12.
As for SAASGARFPLDSAQDPDVGTNTVS [PCDHGC5], the protein stability index was 5.39 ± 0.12 under setting [1] and 5.2 ± 0.31 under setting [2].
SPLTLAACGGHVELAALLIERGAS [ANKRD17]: the protein stability index is, setting by setting: under setting [1], 2.48 ± 0.33; under setting [2], 2.48 ± 0.31.
With DQQNPTLGETPENSNLEEPLNPKP [ZNF449], the protein stability index under setting [1] is 5.6 ± 0.19 and the protein stability index under setting [2] is 5.29 ± 0.23.
For the sequence VWYYCTLTIRESILINNGSRIKGW [TMEM120A], the protein stability index by setting is: under setting [1], 3.08 ± 0.61; under setting [2], 2.96 ± 0.36.
The sequence KGTILKASVDYIRKLQKEQQRSKD [TFE3] gave a protein stability index under setting [1] of 3.41 ± 0.19 and a protein stability index under setting [2] of 3.79 ± 0.38.
The like results for TFIPLEPLPQIPNLPFWVKEKANS [SPATS1] were, in that order, 2.81 ± 0.19 and 3.04 ± 0.15.
With ETVTVTVGPAEPTLVNFHLKRSIP [CPN1], the protein stability index was 3.02 ± 0.3 under setting [1] and 3.16 ± 0.2 under setting [2].
Regarding GGGISCVLQDGCVFEKAGVSISVV [CPOX], the protein stability index was found to be 2.23 ± 0.63 under setting [1] and 2.41 ± 0.48 under setting [2].
For VQELCKQLHAKIDAAEEEKYDMEV [TNNI2], the protein stability index is, setting by setting: under setting [1], 4.81 ± 0.28; under setting [2], 4.74 ± 0.1.
For the sequence VSTRLTVLREDQIPRGFPTIDMGP [PTPRD], the protein stability index is 2.33 ± 0.47 under setting [1] and 2.53 ± 0.18 under setting [2].
In turn, AAGIGKLSTADGKAFADPEVLRRL [ANKRD17] showed a protein stability index under setting [1] of 4.2 ± 0.15 and a protein stability index under setting [2] of 4.19 ± 0.41.
In turn, SLREYNDFLEEVEEIVFNLTNNVD [MNAT1] gave a protein stability index under setting [1] of 2.6 ± 0.47 and a protein stability index under setting [2] of 3.13 ± 0.44.
LKCDLQERLLCPSLLAGTADGSLR [M1AP]: the protein stability index turned out to be 2.55 ± 0.32 under setting [1] and 2.5 ± 0.24 under setting [2].
The like results for PDVENEVKRLLRSDAEAVSTRWEV [TAF7L] were, in that order, 3.24 ± 0.63 and 3.76 ± 0.65.
For the sequence DGLFDNMPDYMILQELKKLKNSNY [PPTC7], the protein stability index is, setting by setting: under setting [1], 2.57 ± 0.3; under setting [2], 2.85 ± 0.64.
FDETSSATTISTSEDGSYGTDVTR [KMT2E]: the protein stability index by setting is: under setting [1], 5.34 ± 0.24; under setting [2], 5.49 ± 0.17.
PDDRLTCSQLLESSYFDSFQEAQI [CDKL4]: the protein stability index is 3.91 ± 0.43 under setting [1] and 4.08 ± 0.12 under setting [2].
On to QTGGDVNVEMDAAPGVDLSRILNE [KRT16], for which the protein stability index was 4.97 ± 0.31 under setting [1] and 5.18 ± 0.085 under setting [2].
Take PKGGQVQIVTKKIDLSHVTSKCGS [MAP2]: the protein stability index was 3.92 ± 0.18 under setting [1] and 3.91 ± 0.37 under setting [2].
Consider ALLITLIVVATLPIPVVFVLRHFH [SLC6A17], for which the protein stability index by setting is: under setting [1], 2.73 ± 0.52; under setting [2], 2.33 ± 0.45.
The like results for ERLLCPSLLAGTADGSLRMDDPKG [M1AP] were, in that order, 4.74 ± 0.3 and 4.71 ± 0.3.
Regarding TNLPKGACALLLTSVDHDRAPVVG [DLC1], the protein stability index under setting [1] stood at 2.97 ± 0.17 and the protein stability index under setting [2] is 2.85 ± 0.3.
Regarding LEEEFDSDSGLSLDSSHSPSSLSS [NFE2L1], the protein stability index is, setting by setting: under setting [1], 5.251 ± 0.052; under setting [2], 5.22 ± 0.12.
Sequence KKLHKIQNKAQRQKDLIMKVENLT [TAF7L] came in with a protein stability index under setting [1] of 3.23 ± 0.17 and a protein stability index under setting [2] of 3.37 ± 0.12.
As for PACHSFNRAIHKKAKGTEAEEEY [FBXO34], the protein stability index was determined as 5.25 ± 0.49 under setting [3] and 5.41 ± 0.34 under setting [4].
For the sequence GSYGVVFKCRNKTSGQVVAVKKFV [CDKL4], the protein stability index amounted to 2.02 ± 0.48 under setting [1] and 2.16 ± 0.46 under setting [2].
Consider EEFLSAMQSARGPTPSSPLPSVPV [PLEKHN1], for which the protein stability index by setting is: under setting [1], 4.15 ± 0.27; under setting [2], 4.14 ± 0.19.
In turn, NFYYFSLIPKTWYSAEQFCVSRNS [CD207] came in with a protein stability index under setting [1] of 2.6 ± 0.53 and a protein stability index under setting [2] of 2.3 ± 0.45.
On the same counts, the results for PSRAPPSTQEPQSPREGEELKPED [GNAS] are 5.5 ± 0.33 and 5.5 ± 0.32.
With GNQESKLIILASGGPQALVNIMRT [CTNNB1], the protein stability index was determined as 2.21 ± 0.57 under setting [1] and 2.26 ± 0.69 under setting [2].
With LNEEINIASSDSEVEIVGVQEHAR [C18orf25], the protein stability index under setting [1] came to 5.27 ± 0.1 and the protein stability index under setting [2] amounted to 5.33 ± 0.18.
On the same counts, the results for NTNPKEVQEMRNKIREQNLQDIKT [ADD1] are 4.98 ± 0.18 and 5.11 ± 0.13.
On the same counts, the results for TVEKDKVTGETRVLSSTTLLPRQP [PALM] are 4.86 ± 0.23 and 4.87 ± 0.084.
The like results for LLDDSKTWWRVRNAANRTGYVPSN [NCK2] were, in that order, 2.93 ± 0.23 and 2.79 ± 0.15.
Turning to AKLALYPCASLLAFASTCLLSRFS [TMEM175], the protein stability index reads like this: under setting [1], 2.45 ± 0.49; under setting [2], 2.52 ± 0.52.
As to PHSDQRLRPQRTKQYVLLSILLCL [TMEM106C], the protein stability index came to 2.34 ± 0.48 under setting [1] and 2.11 ± 0.17 under setting [2].
On the same counts, the results for EKEKHVNQLQTKVAVLEQEIKDKD [SASS6] are 5.38 ± 0.12 and 5.53 ± 0.14.
For SAEWFITAVGAILAGGLCVGIYAT [ACSBG2], the protein stability index amounted to 3.53 ± 0.57 under setting [1] and 3.18 ± 0.091 under setting [2].
HEVLLCSDLVKAYQRCVSAAHKG [CHCHD6]: the protein stability index reads like this: under setting [3], 2.56 ± 0.75; under setting [4], 2.27 ± 0.45.
Take LEGVIDRYQQSKAAALKCQLCEKA [TRIM9]: the protein stability index was determined as 3.45 ± 0.32 under setting [1] and 3.78 ± 0.34 under setting [2].
The like results for FLFQKPGDKYEHHSYMGMRGFCAF [POMT2] were, in that order, 2.55 ± 0.75 and 1.99 ± 0.22.
Consider NVKTLKDGKPFPELVLEQQLDREA [PCDHGC5], for which the protein stability index stood at 5.07 ± 0.33 under setting [1] and 5.02 ± 0.13 under setting [2].
Turning to GLDYLHSKCKIIHTDIKPENILMC [SRPK2], the protein stability index was found to be 2.06 ± 0.22 under setting [1] and 1.9 ± 0.35 under setting [2].
With WADAAGEAVPEGPDGGGPWLEDEP [ZSWIM9], the protein stability index was 5.62 ± 0.34 under setting [1] and 5.26 ± 0.47 under setting [2].
The like results for LGERRAEPHSLLHLSRLCVRHNLG [SPSB2] were, in that order, 3.35 ± 0.22 and 3.3 ± 0.23.
Consider FLTFDKQVLRFYAIWDDTDSMYGE [EFHC1], for which the protein stability index is 2.49 ± 0.41 under setting [1] and 2.46 ± 0.55 under setting [2].
Turning to DTDRDGYISHRELGDCMRTLGYMP [CABP4], the protein stability index amounted to 3.41 ± 0.22 under setting [1] and 3.47 ± 0.26 under setting [2].
Consider HFRPRFHPLPTVIIVNLLWFIHLV [TMEM192], for which the protein stability index was determined as 2.63 ± 0.48 under setting [1] and 2.82 ± 0.79 under setting [2].
Take LEEGENPVPAFQSDGTDEPESKEP [SMG5]: the protein stability index runs as follows: under setting [1], 5.65 ± 0.24; under setting [2], 5.65 ± 0.2.
Take SIIECDMNVDFDAPLGYKEPERQV [UFD1]: the protein stability index by setting is: under setting [1], 4.27 ± 0.22; under setting [2], 4.31 ± 0.18.
The like results for VNFMYLQSLLQPKSSSVDSELTSL [SMG5] were, in that order, 2.21 ± 0.39 and 2.15 ± 0.39.
In the case of DLRKHRRKLLSPVSREENREDKAT [PPFIA4], the protein stability index is, setting by setting: under setting [1], 4.52 ± 0.18; under setting [2], 4.84 ± 0.3.
Consider VAGILSLLLGTAYSFYLFHPLAYG [POMT2], for which the protein stability index stood at 3.16 ± 0.24 under setting [1] and 2.98 ± 0.3 under setting [2].
For the sequence DNEGNSALHIIVQYNRPISDFLTL [FEM1B], the protein stability index stood at 3.06 ± 0.9 under setting [1] and 2.33 ± 0.17 under setting [2].
On the same counts, the results for TLERYMCSRFFIDFPDILEQQRKL [TENT5C] are 2.35 ± 0.16 and 2.37 ± 0.037.
The like results for RRSIRYGREVELKPYIAAHFDVLP [PTPRD] were, in that order, 2.5 ± 0.41 and 2.46 ± 0.43.
The like results for HDHLTLSVSRPEGRSWPSAPDDSK [PDLIM4] were, in that order, 5.15 ± 0.093 and 5.06 ± 0.072.
In the case of FVKALDDLHKMNHVTPPNVSLGAT [JUNB], the protein stability index under setting [1] was found to be 2.43 ± 0.34 and the protein stability index under setting [2] worked out at 2.94 ± 0.49.
In the case of GAGFGGGLGAGFGGGFAGGDGLLV [KRT16], the protein stability index was found to be 2.58 ± 0.82 under setting [1] and 2.46 ± 0.92 under setting [2].
Consider REVDLNGDGTVDFDEFVMMLSRH [CABP4], for which the protein stability index under setting [3] was found to be 4 ± 0.17 and the protein stability index under setting [4] was 4.23 ± 0.28.
As for GGADIIVIKYNVNDKFSFHEVKDN [RHOBTB3], the protein stability index worked out at 2.72 ± 0.42 under setting [1] and 2.09 ± 0.55 under setting [2].
Take HFKKTKKMGGKDFSFRYQQELEEE [ATL3]: the protein stability index under setting [1] came to 2.59 ± 0.56 and the protein stability index under setting [2] was determined as 3.54 ± 0.81.
On to RLVKEGRFVPSNPIGILTTSYCEL [PPTC7], for which the protein stability index under setting [1] is 2.39 ± 0.21 and the protein stability index under setting [2] worked out at 2.12 ± 0.47.
In the case of CLRILMGELSNHHDHHDEFCLMP [BEX3], the protein stability index turned out to be 2.58 ± 0.69 under setting [3] and 2.27 ± 0.15 under setting [4].

(Values after the supplement of paper PMC10567573.)
